The RNAGym collection of RNA variant scans (doi:10.7554/elife.90254)

B1: LINE1-full (parent)
chain: UACGUAGGUGGUUUUCCCCUGAUAGUGCUAAGGGGGCCUGGAAGUUUGGACUGGGCAGAGCUCAACACAGCGUGGCAAAGUGGCUGUGGCUAGACUGCCUCUCUGGAUUCCUCGUCACUCAGCAGGGCAUCUCUGAGAGAAAUGCC

Variants of: B1
Experiment: self-cleavage, relative activity (ratio to wild type); higher = more cleavage; in vitro, sequencing; the parent is a self-cleaving ribozyme
UACGUAGGUGGUUUUCCCCUGAUAGCGCUAAGGGGGCCUGGAAGUUUGGACUGGGCAGAACUCAACACAGCGUGGCAAAGUGGCUGUGGCUAGACUGCCUCUCUGGAUUCCUCGUCACUCAGCAGGGCAUCUCUGAGAGAAAUGCC [U26C G60A] showed a self-cleavage of 0.12.
With UACGUAGGUGGUUUUCCCCUGAUAGCGCUAAGGGGGCCUGGAAGUUUGGACUGGGCAGAGCUCAACACAACGUGGCAAAGUGGCUGUGGCUAGACUGCCUCUCUGGAUUCCUCGUCACUCAGCAGGGCAUCUCUGAGAGAAAUGCC [U26C G70A] the self-cleavage was 0.14.
In the case of UACGUAGGUGGUUUUCCCCUGAUAGCGCUAAGGGGGCCUGGAAGUUUGGACUGGGCAGAGCUCAACACAGCAUGGCAAAGUGGCUGUGGCUAGACUGCCUCUCUGGAUUCCUCGUCACUCAGCAGGGCAUCUCUGAGAGAAAUGCC [U26C G72A], the self-cleavage is reported as 0.93.
UACGUAGGUGGUUUUCCCCUGAUAGCGCUAAGGGGGCCUGGAAGUUUGGACUGGGCAGAGCUCAACACAGCUUGGCAAAGUGGCUGUGGCUAGACUGCCUCUCUGGAUUCCUCGUCACUCAGCAGGGCAUCUCUGAGAGAAAUGCC [U26C G72U] showed a self-cleavage of 1.02.
In the case of UACGUAGGUGGUUUUCCCCUGAUAGCGCUAAGGGGGCCUGGAAGUUUGGACUGGGCAGAGCUCAACACAGCGUAGCAAAGUGGCUGUGGCUAGACUGCCUCUCUGGAUUCCUCGUCACUCAGCAGGGCAUCUCUGAGAGAAAUGCC [U26C G74A], the self-cleavage is reported as 1.17.
In the case of UACGUAGGUGGUUUUCCCCUGAUAGCGCUAAGGGGGCCUGGAAGUUUGGACUGGGCAGAGCUCAACACAGCGUUGCAAAGUGGCUGUGGCUAGACUGCCUCUCUGGAUUCCUCGUCACUCAGCAGGGCAUCUCUGAGAGAAAUGCC [U26C G74U], the self-cleavage is reported as 1.42.
Variant UACGUAGGUGGUUUUCCCCUGAUAGCGCUAAGGGGGCCUGGAAGUUUGGACUGGGCAGAGCUCAACACAGCGUGGCAAAGUGGCUAUGGCUAGACUGCCUCUCUGGAUUCCUCGUCACUCAGCAGGGCAUCUCUGAGAGAAAUGCC [U26C G86A] has a self-cleavage of 0.05.
UACGUAGGUGGUUUUCCCCUGAUAGCGCUAAGGGGGCCUGGAAGUUUGGACUGGGCAGAGCUCAACACAGCGUGGCAAAGUGGCUGUAGCUAGACUGCCUCUCUGGAUUCCUCGUCACUCAGCAGGGCAUCUCUGAGAGAAAUGCC [U26C G88A] gave a self-cleavage of 0.05.
UACGUAGGUGGUUUUCCCCUGAUAGCGCUAAGGGGGCCUGGAAGUUUGGACUGGGCAGAGCUCAACACAGCGUGGCAAAGUGGCUGUGGCUAGACUACCUCUCUGGAUUCCUCGUCACUCAGCAGGGCAUCUCUGAGAGAAAUGCC [U26C G97A] showed a self-cleavage of 0.07.
UACGUAGGUGGUUUUCCCCUGAUAGCGCUAAGGGGGCCUGGAAGUUUGGACUGGGCAGAGCUCAACACAGCGUGGCAAAGUGGCUGUGGCUAGACUGCCUCUCUUGAUUCCUCGUCACUCAGCAGGGCAUCUCUGAGAGAAAUGCC [U26C G105U] gave a self-cleavage of 1.57.
In the case of UACGUAGGUGGUUUUCCCCUGAUAGCGCUAAGGGGGCCUGGAAGUUUGGACUGGGCAGAGCUCAACACAGCGUGGCAAAGUGGCUGUGGCUAGACUGCCUCUCUGGAUUCCUCAUCACUCAGCAGGGCAUCUCUGAGAGAAAUGCC [U26C G114A], the self-cleavage is reported as 1.22.
Variant UACGUAGGUGGUUUUCCCCUGAUAGCGCUAAGGGGGCCUGGAAGUUUGGACUGGGCAGAGCUCAACACAGCGUGGCAAAGUGGCUGUGGCUAGACUGCCUCUCUGGAUUCCUCGUCACUCAUCAGGGCAUCUCUGAGAGAAAUGCC [U26C G122U] has a self-cleavage of 1.05.
UACGUAGGUGGUUUUCCCCUGAUAGCGCUAAGGGGGCCUGGAAGUUUGGACUGGGCAGAGCUCAACACAGCGUGGCAAAGUGGCUGUGGCUAGACUGCCUCUCUGGAUUCCUCGUCACUCAGCAAGGCAUCUCUGAGAGAAAUGCC [U26C G125A] showed a self-cleavage of 1.61.
In the case of UACGUAGGUGGUUUUCCCCUGAUAGCGCUAAGGGGGCCUGGAAGUUUGGACUGGGCAGAGCUCAACACAGCGUGGCAAAGUGGCUGUGGCUAGACUGCCUCUCUGGAUUCCUCGUCACUCAGCAUGGCAUCUCUGAGAGAAAUGCC [U26C G125U], the self-cleavage is reported as 0.92.
Work on UACGUAGGUGGUUUUCCCCUGAUAGCGCUAAGGGGGCCUGGAAGUUUGGACUGGGCAGAGCUCAACACAGCGUGGCAAAGUGGCUGUGGCUAGACUGCCUCUCUGGAUUCCUCGUCACUCAGCAGGGCAUCUCUGAGAAAAAUGCC [U26C G139A] yielded a self-cleavage of 1.34.
Work on UACGUAGGUGGUUUUCCCCUGAUAGCGCUAAGGGGGCCUGGAAGUUUGGACUGGGCAGAGCUCAACACAGCGUGGCAAAGUGGCUGUGGCUAGACUGCCUCUCUGGAUUCCUCGUCACUCAGCAGGGCAUCUCUGAGAGAAAUACC [U26C G144A] yielded a self-cleavage of 1.02.
For UACGUAGGUGGUUUUCCCCUGAUAGCGCCAAGGGGGCCUGGAAGUUUGGACUGGGCAGAGCUCAACACAGCGUGGCAAAGUGGCUGUGGCUAGACUGCCUCUCUGGAUUCCUCGUCACUCAGCAGGGCAUCUCUGAGAGAAAUGCC [U26C U29C], the self-cleavage was 1.15.
UACGUAGGUGGUUUUCCCCUGAUAGCGCUAAGGGGGCCAGGAAGUUUGGACUGGGCAGAGCUCAACACAGCGUGGCAAAGUGGCUGUGGCUAGACUGCCUCUCUGGAUUCCUCGUCACUCAGCAGGGCAUCUCUGAGAGAAAUGCC [U26C U39A] showed a self-cleavage of 1.9.
With UACGUAGGUGGUUUUCCCCUGAUAGCGCUAAGGGGGCCGGGAAGUUUGGACUGGGCAGAGCUCAACACAGCGUGGCAAAGUGGCUGUGGCUAGACUGCCUCUCUGGAUUCCUCGUCACUCAGCAGGGCAUCUCUGAGAGAAAUGCC [U26C U39G] the self-cleavage was 0.65.
For UACGUAGGUGGUUUUCCCCUGAUAGCGCUAAGGGGGCCUGGAAGAUUGGACUGGGCAGAGCUCAACACAGCGUGGCAAAGUGGCUGUGGCUAGACUGCCUCUCUGGAUUCCUCGUCACUCAGCAGGGCAUCUCUGAGAGAAAUGCC [U26C U45A], the self-cleavage was 0.99.
Variant UACGUAGGUGGUUUUCCCCUGAUAGCGCUAAGGGGGCCUGGAAGCUUGGACUGGGCAGAGCUCAACACAGCGUGGCAAAGUGGCUGUGGCUAGACUGCCUCUCUGGAUUCCUCGUCACUCAGCAGGGCAUCUCUGAGAGAAAUGCC [U26C U45C] has a self-cleavage of 1.07.
With UACGUAGGUGGUUUUCCCCUGAUAGCGCUAAGGGGGCCUGGAAGUAUGGACUGGGCAGAGCUCAACACAGCGUGGCAAAGUGGCUGUGGCUAGACUGCCUCUCUGGAUUCCUCGUCACUCAGCAGGGCAUCUCUGAGAGAAAUGCC [U26C U46A] the self-cleavage was 0.
With UACGUAGGUGGUUUUCCCCUGAUAGCGCUAAGGGGGCCUGGAAGUUCGGACUGGGCAGAGCUCAACACAGCGUGGCAAAGUGGCUGUGGCUAGACUGCCUCUCUGGAUUCCUCGUCACUCAGCAGGGCAUCUCUGAGAGAAAUGCC [U26C U47C] the self-cleavage was 1.88.
UACGUAGGUGGUUUUCCCCUGAUAGCGCUAAGGGGGCCUGGAAGUUUGGACAGGGCAGAGCUCAACACAGCGUGGCAAAGUGGCUGUGGCUAGACUGCCUCUCUGGAUUCCUCGUCACUCAGCAGGGCAUCUCUGAGAGAAAUGCC [U26C U52A] gave a self-cleavage of 1.53.
Variant UACGUAGGUGGUUUUCCCCUGAUAGCGCUAAGGGGGCCUGGAAGUUUGGACUGGGCAGAGCCCAACACAGCGUGGCAAAGUGGCUGUGGCUAGACUGCCUCUCUGGAUUCCUCGUCACUCAGCAGGGCAUCUCUGAGAGAAAUGCC [U26C U62C] has a self-cleavage of 0.1.
UACGUAGGUGGUUUUCCCCUGAUAGCGCUAAGGGGGCCUGGAAGUUUGGACUGGGCAGAGCUCAACACAGCGGGGCAAAGUGGCUGUGGCUAGACUGCCUCUCUGGAUUCCUCGUCACUCAGCAGGGCAUCUCUGAGAGAAAUGCC [U26C U73G] gave a self-cleavage of 0.97.
Variant UACGUAGGUGGUUUUCCCCUGAUAGCGCUAAGGGGGCCUGGAAGUUUGGACUGGGCAGAGCUCAACACAGCGUGGCAAAGAGGCUGUGGCUAGACUGCCUCUCUGGAUUCCUCGUCACUCAGCAGGGCAUCUCUGAGAGAAAUGCC [U26C U81A] has a self-cleavage of 1.68.
UACGUAGGUGGUUUUCCCCUGAUAGCGCUAAGGGGGCCUGGAAGUUUGGACUGGGCAGAGCUCAACACAGCGUGGCAAAGCGGCUGUGGCUAGACUGCCUCUCUGGAUUCCUCGUCACUCAGCAGGGCAUCUCUGAGAGAAAUGCC [U26C U81C] gave a self-cleavage of 1.93.
For UACGUAGGUGGUUUUCCCCUGAUAGCGCUAAGGGGGCCUGGAAGUUUGGACUGGGCAGAGCUCAACACAGCGUGGCAAAGUGGCUGCGGCUAGACUGCCUCUCUGGAUUCCUCGUCACUCAGCAGGGCAUCUCUGAGAGAAAUGCC [U26C U87C], the self-cleavage was 0.26.
Variant UACGUAGGUGGUUUUCCCCUGAUAGCGCUAAGGGGGCCUGGAAGUUUGGACUGGGCAGAGCUCAACACAGCGUGGCAAAGUGGCUGUGGCUAGACCGCCUCUCUGGAUUCCUCGUCACUCAGCAGGGCAUCUCUGAGAGAAAUGCC [U26C U96C] has a self-cleavage of 0.29.
With UACGUAGGUGGUUUUCCCCUGAUAGCGCUAAGGGGGCCUGGAAGUUUGGACUGGGCAGAGCUCAACACAGCGUGGCAAAGUGGCUGUGGCUAGACUGCCCCUCUGGAUUCCUCGUCACUCAGCAGGGCAUCUCUGAGAGAAAUGCC [U26C U100C] the self-cleavage was 1.29.
UACGUAGGUGGUUUUCCCCUGAUAGCGCUAAGGGGGCCUGGAAGUUUGGACUGGGCAGAGCUCAACACAGCGUGGCAAAGUGGCUGUGGCUAGACUGCCUCACUGGAUUCCUCGUCACUCAGCAGGGCAUCUCUGAGAGAAAUGCC [U26C U102A] showed a self-cleavage of 1.31.
For UACGUAGGUGGUUUUCCCCUGAUAGCGCUAAGGGGGCCUGGAAGUUUGGACUGGGCAGAGCUCAACACAGCGUGGCAAAGUGGCUGUGGCUAGACUGCCUCCCUGGAUUCCUCGUCACUCAGCAGGGCAUCUCUGAGAGAAAUGCC [U26C U102C], the self-cleavage was 1.22.
In the case of UACGUAGGUGGUUUUCCCCUGAUAGCGCUAAGGGGGCCUGGAAGUUUGGACUGGGCAGAGCUCAACACAGCGUGGCAAAGUGGCUGUGGCUAGACUGCCUCUCUGGAAUCCUCGUCACUCAGCAGGGCAUCUCUGAGAGAAAUGCC [U26C U108A], the self-cleavage is reported as 1.5.
With UACGUAGGUGGUUUUCCCCUGAUAGCGCUAAGGGGGCCUGGAAGUUUGGACUGGGCAGAGCUCAACACAGCGUGGCAAAGUGGCUGUGGCUAGACUGCCUCUCUGGACUCCUCGUCACUCAGCAGGGCAUCUCUGAGAGAAAUGCC [U26C U108C] the self-cleavage was 1.76.
In the case of UACGUAGGUGGUUUUCCCCUGAUAGCGCUAAGGGGGCCUGGAAGUUUGGACUGGGCAGAGCUCAACACAGCGUGGCAAAGUGGCUGUGGCUAGACUGCCUCUCUGGAGUCCUCGUCACUCAGCAGGGCAUCUCUGAGAGAAAUGCC [U26C U108G], the self-cleavage is reported as 2.12.
Work on UACGUAGGUGGUUUUCCCCUGAUAGCGCUAAGGGGGCCUGGAAGUUUGGACUGGGCAGAGCUCAACACAGCGUGGCAAAGUGGCUGUGGCUAGACUGCCUCUCUGGAUUCCACGUCACUCAGCAGGGCAUCUCUGAGAGAAAUGCC [U26C U112A] yielded a self-cleavage of 1.63.
With UACGUAGGUGGUUUUCCCCUGAUAGCGCUAAGGGGGCCUGGAAGUUUGGACUGGGCAGAGCUCAACACAGCGUGGCAAAGUGGCUGUGGCUAGACUGCCUCUCUGGAUUCCUCGACACUCAGCAGGGCAUCUCUGAGAGAAAUGCC [U26C U115A] the self-cleavage was 1.33.
UACGUAGGUGGUUUUCCCCUGAUAGCGCUAAGGGGGCCUGGAAGUUUGGACUGGGCAGAGCUCAACACAGCGUGGCAAAGUGGCUGUGGCUAGACUGCCUCUCUGGAUUCCUCGCCACUCAGCAGGGCAUCUCUGAGAGAAAUGCC [U26C U115C] gave a self-cleavage of 1.84.
